Data from PMC9758056 (2022).

Target: Taxol-stabilized microtubules from bovine tubulin, labeled with Alexa Fluor 488 and biotin, tethered to a … (bovine, UniProt Q6B856 1-445, part of the tubulin biotinylated, part labeled with Alexa Fluor 488 (10% biotin-tubulin and 10% Alexa 488-tubulin) | part of the tubulin biotinylated, part labeled with Alexa Fluor 488 (10% …))
Sequence (chain, as listed by the source, chain 1 of 2): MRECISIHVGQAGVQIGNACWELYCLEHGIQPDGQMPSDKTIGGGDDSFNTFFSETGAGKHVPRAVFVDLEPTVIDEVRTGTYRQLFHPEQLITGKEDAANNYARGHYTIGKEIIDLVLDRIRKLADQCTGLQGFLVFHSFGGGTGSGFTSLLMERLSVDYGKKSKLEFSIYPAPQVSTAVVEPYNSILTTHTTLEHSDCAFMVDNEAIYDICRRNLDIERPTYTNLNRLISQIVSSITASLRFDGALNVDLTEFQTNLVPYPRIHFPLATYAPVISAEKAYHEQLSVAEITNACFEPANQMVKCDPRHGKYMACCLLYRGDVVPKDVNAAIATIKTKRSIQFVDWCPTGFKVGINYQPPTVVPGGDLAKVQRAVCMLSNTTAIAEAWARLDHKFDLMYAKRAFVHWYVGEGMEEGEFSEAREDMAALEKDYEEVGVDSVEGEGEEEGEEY
Sequence (Q6B856 whole entry, chain 2 of 2): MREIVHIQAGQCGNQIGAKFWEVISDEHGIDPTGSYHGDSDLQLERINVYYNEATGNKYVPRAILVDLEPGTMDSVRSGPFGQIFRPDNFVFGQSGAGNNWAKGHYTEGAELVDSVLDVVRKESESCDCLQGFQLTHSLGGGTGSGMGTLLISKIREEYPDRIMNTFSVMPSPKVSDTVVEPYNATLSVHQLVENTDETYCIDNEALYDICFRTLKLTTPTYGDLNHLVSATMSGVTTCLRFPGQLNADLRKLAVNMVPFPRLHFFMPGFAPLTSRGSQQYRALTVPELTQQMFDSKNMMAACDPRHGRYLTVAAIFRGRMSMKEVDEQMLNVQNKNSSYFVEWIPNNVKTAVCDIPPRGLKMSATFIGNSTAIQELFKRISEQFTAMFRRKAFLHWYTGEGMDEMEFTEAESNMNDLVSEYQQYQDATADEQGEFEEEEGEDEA

Kd: ~40 nM
B1: TMR-LRRK2^RCKW (LRRK2^RCKW randomly labeled with BODIPY TMR-X) (domain or fragment)
chain: KKAVPYNRMKLMIVGNTGSGKTTLLQQLMKTKKSDLGMQSATVGIDVKDWPIQIRDKRKRDLVLNVWDFAGREEFYSTHPHFMTQRALYLAVYDLSKGQAEVDAMKPWLFNIKARASSSPVILVGTHLDVSDEKQRKACMSKITKELLNKRGFPAIRDYHFVNATEESDALAKLRKTIINESLNFKIRDQLVVGQLIPDCYVELEKIILSERKNVPIEFPVIDRKRLLQLVRENQLQLDENELPHAVHFLNESGVLLHFQDPALQLSDLYFVEPKWLCKIMAQILTVKVEGCPKHPKGIISRRDVEKFLSKKRKFPKNYMSQYFKLLEKFQIALPIGEEYLLVPSSLSDHRPVIELPHCENSEIIIRLYEMPYFPMGFWSRLINRLLEISPYMLSGRERALRPNRMYWRQGIYLNWSPEAYCLVGSEVLDNHPESFLKITVPSCRKGCILLGQVVDHIDSLMEEWFPGLLEIDICGEGETLLKKWALYSFNDGEEHQKILLDDLMKKAEEGDLLVNPDQPRLTIPISQIAPDLILADLPRNIMLNNDELEFEQAPEFLLGDGSFGSVYRAAYEGEEVAVKIFNKHTSLRLLRQELVVLCHLHHPSLISLLAAGIRPRMLVMELASKGSLDRLLQQDKASLTRTLQHRIALHVADGLRYLHSAMIIYRDLKPHNVLLFTLYPNAAIIAKIADYGIAQYCCRMGIKTSEGTPGFRAPEVARGNVIYNQQADVYSFGLLLYDILTTGGRIVEGLKFPNEFDELEIQGKLPDPVKEYGCAPWPMVEKLIKQCLKENPQERPTSAQVFDILNSAELVCLTRRILLPKNVIVECMVATHHNSRNASIWLGCGHTDRGQLSFLDLNTEGYTSEEVADSRILCLALVHLPVEKESWIVSGTQSGTLLVINTEDGKKRHTLEKMTDSVTCLYCNSFSKQSKQKNFLLVGTADGKLAIFEDKTVKLKGAAPLKILNIGNVSTPLMCLSESTNSTERNVMWGGCGTKIFSFSNDFTIQKLIETRTSQLFSYAAFSDSNIITVVVDTALYIAKQNSPVVEVWDKKTEKLCGLIDCVHFLREVMVKENKESKHKMSYSGRVKTLCLQKNTALWIGTGGGHILLLDLSTRRLIRVIYNFCNSVRVMMTAQLGSLKNVMLVLGYNRKNTEGTQKQKEIQSCLTVWDINLPHEVQNLEKHIEVRKELAEKMRRTSVE
modifications: BODIPY TMR-X on primary amines, randomly labeled (dye added 1:1)
